Data published in PMC11996864, “A small-molecule inhibitor of BCL10-MALT1 interaction abrogates progression of diffuse large B cell lymphoma” (The Journal of Clinical Investigation, 2025).
Values joined by “and” are separate entries in the source; they are usually repeats but may differ in a detail not shown here. Identical values can stand only once.

Key:
[1] = target: T1, BCL10 (Homo sapiens, UniProt O95999); assay: ELISA binding of recombinant MALT1 or GRK2 to immobilized BCL10; conditions: protein added to immobilized BCL10
T1 construct: Full-length GST-BCL10 (Abnova, catalog H00008915-P01) was immobilized onto a gold sensor chip surface; GST (N); purchased Abnova H00008915-P01
T1 sequence (O95999 1-233): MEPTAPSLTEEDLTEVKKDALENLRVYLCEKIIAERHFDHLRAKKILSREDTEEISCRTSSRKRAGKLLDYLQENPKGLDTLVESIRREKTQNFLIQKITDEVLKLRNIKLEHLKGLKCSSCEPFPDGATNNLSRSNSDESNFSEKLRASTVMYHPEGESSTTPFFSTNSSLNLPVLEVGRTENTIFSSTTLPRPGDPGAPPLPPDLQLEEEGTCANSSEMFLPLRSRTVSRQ
Procedure: ELISA-based protein-protein interaction assay. On a high-binding 96-well ELISA microplate (Greiner Cat# 655061), 100 ng of His-tagged recombinant human full-length BCL10 protein (Novus Cat# NBP1-99064) or in 100 µl PBS was allowed to adhere overnight at 4°C. The plate was blocked with 5% BSA in PBS for 1 hour at room temperature. After washing twice with PBS-T, a mixture of 100 ng of GST-tagged recombinant human full-length MALT1 protein (Novus Biologicals Cat# H00010892-P01) and compound that was preincubated for 1 hour in 100 μl PBS was added to the plate for 1 hour at room temperature. After washing three times with PBS-T, anti-MALT1 antibody (Cell Signaling Technology, Cat# 2494) in 5% BSA in PBS was added at 1:1000 dilution for 1 hour at room temperature. After washing three times with PBS-T, HRP-conjugated secondary antibody in 5% BSA in PBS was added at 1:5000 dilution for 1 hour at room temperature. After washing three times with PBS-T, 100 µl of 3,3’,5,5’-tetramethylbenzidine (TMB) substrate solution (Thermo Scientific, Cat# 34028) was added for up to 15 minutes, and 100 µl of 2 M sulfuric acid was added to stop the reaction. The plate was read at 450 nm using a spectrophotometer (Molecular Devices SpectraMax i3). […]

[2] = target: T2, Full-length GST-BCL10 (UniProt O95999 1-233); assay: SPR; Biacore 2000; full-length GST-BCL10 immobilised on a gold sensor chip surface, purified MALT1 fragments injected as analyte; Langmuir model, global fitting, 1:1 binding; conditions: both partners purified
T2 construct: BCL10, full length; also called immobilized BCL10; source: bought: Abnova, catalog H00008915-P01
T2 sequence (looked up): T1 sequence (O95999 1-233)

[3] = target: T1, BCL10; assay: SPR binding of MALT1 protein fragments to immobilized BCL10
Procedure: Surface plasmon resonance (SPR) experiments were performed on a Biacore 2000 system (Cytiva). Full-length GST-BCL10 (Abnova, catalog H00008915-P01) was immobilized onto a gold sensor chip surface, and analyte solution containing MALT1(DD+Ig1-2), MALT1(DD), or MALT1(Ig1-2) purified protein was injected over the surface through a series of flow cells (see Supplemental Methods for details on protein purification). The binding kinetic parameters were obtained using the Langmuir model for global fitting with 1:1 binding ratio where one ligand molecule interacts with one analyte molecule. The equilibrium dissociation constant (KD) of M1i-124 to full-length GST-tagged MALT1 (Novus, catalog H00010892-P01) protein was determined by Creative Biolabs using Biacore T200. Full-length MALT1 protein was immobilized onto CM5 sensor chip surface, and M1i-124 was injected at concentrations of 0, 12.5, 25, 50, 100, and 200 μM. The steady-state affinity model was used to determine the KD.
Supplemental Materials and Methods
Cell lines and reagents. The DLBCL cell lines OCI-Ly1, OCI-Ly3, and OCI-Ly7 were provided by Mark D. Minden (University Health Network, Toronto, Ontario, Canada) , TMD8 cell line was provided by Louis Staudt (National Cancer Institute, NIH, Bethesda Maryland), and the BJAB cell line was provided by Mathijs Baens (Katholieke Universiteit Leuven, Leuven, Belgium). […]

For BCL10 + MALT1, the OD450 [1] was 0.851 and 0.825.

In the case of BCL10 + GRK2, the OD450 [1] is reported as 0.226 and 0.156.

B1: MALT1(Ig1-2) purified protein (domain or fragment)
chain: KITVNPESKAVLAGQFVKLCCRATGHPFVQYQWFKMNKEIPNGNTSELIFNAVHVKDAGFYVCRVNNNFTFEFSQWSQLDVCDIPESFQRSVDGVSESKLQICVEPTSQKLMPGSTLVLQCVAVGSPIPHYQWFKNELPLTHETKKLYMVPYVDLEHQGTYWCHVYNDRDSQDSKKVEIII
notes: MALT1, tandem Ig-like domains Ig1 and Ig2; PDB 3K0W is the published MALT1(Ig1-2) crystal structure, whose limits may differ from this construct; Host, tags and limits are in Supplemental Methods; source: purified protein (purification in Supplemental Methods)
Work on B1 yielded a Kd [2] of 29 nM.

B2: MALT1(DD): Recombinant human MALT1 fragment, death domain only (aa 29-124) (protein, UniProt Q9UDY8 29-124, looked up, fragment)
chain: TLNRLREPLLRRLSELLDQAPEGRGWRRLAELAGSRGRLRLSCLDLEQCSLKVLEPEGSPSLCLLKLMGEKGCTVTELSDFLQAMEHTEVLQLLSP
B2 was tested, and the “binding to BCL10” value ([3]; result in words) was “no detectable binding”.

B3: MALT1(DD+Ig1-2): Recombinant human MALT1 fragment, death domain plus Ig1-2 domains (aa 1-326) (protein, UniProt Q9UDY8 1-326, looked up, fragment)
chain: MSLLGDPLQALPPSAAPTGPLLAPPAGATLNRLREPLLRRLSELLDQAPEGRGWRRLAELAGSRGRLRLSCLDLEQCSLKVLEPEGSPSLCLLKLMGEKGCTVTELSDFLQAMEHTEVLQLLSPPGIKITVNPESKAVLAGQFVKLCCRATGHPFVQYQWFKMNKEIPNGNTSELIFNAVHVKDAGFYVCRVNNNFTFEFSQWSQLDVCDIPESFQRSVDGVSESKLQICVEPTSQKLMPGSTLVLQCVAVGSPIPHYQWFKNELPLTHETKKLYMVPYVDLEHQGTYWCHVYNDRDSQDSKKVEIIIGRTDEAVECTEDELNNLG
B3 showed a Kd ([3]; MALT1 fragment over immobilized BCL10) of 25 nM.

B4: MALT1(DD+Ig1-2) purified protein (domain or fragment)
chain: MSLLGDPLQALPPSAAPTGPLLAPPAGATLNRLREPLLRRLSELLDQAPEGRGWRRLAELAGSRGRLRLSCLDLEQCSLKVLEPEGSPSLCLLKLMGEKGCTVTELSDFLQAMEHTEVLQLLSPPGIKITVNPESKAVLAGQFVKLCCRATGHPFVQYQWFKMNKEIPNGNTSELIFNAVHVKDAGFYVCRVNNNFTFEFSQWSQLDVCDIPESFQRSVDGVSESKLQICVEPTSQKLMPGSTLVLQCVAVGSPIPHYQWFKNELPLTHETKKLYMVPYVDLEHQGTYWCHVYNDRDSQDSKKVEIIIDELNNLGHPDNKEQTTDQ
modifications: Printed as aa 1-326, MBP tag removed by TEV. Taken in isoform B numbering (lacks 309-319): the paper uses isoform B (C-terminus at 813), and the 3K0W construct, 199 residues after its tag and ending …
For B4, the Kd [2] was 25 nM.
